This data set can be described thus: Relaxivity measurement of BSA conjugates in aqueous solution and in plasma. Type of data set: physicochemical. Particulars: relaxivity per mol of gadolinium, calculated from the measured values, +37° C., 20 MHz. The method, then:
In this example, the relaxivities of the conjugates from Examples 30-38 were compared with the relaxivities of two comparison substances. As comparison substances, Gd-DTPA (1) with the formula: [drawing 16]
and Gd-GlyMeDOTA (2) with the formula: [drawing 17]
which were reacted in each case with bovine serum albumin (BSA), were used.
The measurements were made in each case in aqueous solution and in plasma at +37° C. and a frequency of 20 MHz. The results are summarized in Table 2 below, whereby the indicated relaxivities per mol of gadolinium were calculated from the measured values: […]

Here are results for 1 substance from patent US20030206865A1, “Conjugates of macrocyclic metal complexes with biomolecules and their use for the production of agents for NMR diagnosis and radiodiagnosis as well as radiotherapy” (Schering AG, priority 2001, published 2003).

Turning to “Gd-GlyMeDOTA [Vergleichssubstanz 2, reference compound]”, under “aqueous solution”, the “R1 (H2O)” value was 18.3 L/mmol/s. The “R1 (Plasma)” value (plasma) is 20.8 L/mmol/s.
